In patent US20250207107A1, “LUCIFERASE MUTANT AND USE THEREOF” (DGI TECH (QING DAO) CO., LIMITED, priority 2022, published 2025):

B1: P25-1: Pxluc mutant without signal peptide, G98L, Q99R (SEQ ID NO: 2 numbering) (protein)
chain: MYIKVWFGLACLSLVLAQPTENKQESHIVDSDLDGDRGRKLPGKKLPIEVLKIMEANARRAGCTRGCLICLSKIKCTAKMKRYIPGRCHTYEGDKSILRGGIGGPIVDIPEIIGFKNMEPMDQFIAQVDLCADCTTGCLKGLANVRCNDLLKKWLPDRCAGFADKIQNEVDSIKGMAGDR
modifications: signal peptide removed; (WT Pxluc)
B2: Pxluc WT: wild-type luciferase for eukaryotic expression, with signal peptide, 6×His tag and Avitag (SEQ ID NO: 28) (protein)
chain: MYIKVWFGLACLSLVLAHHHHHHGSQPTENKQESHIVDSDLDGDRGRKLPGKKLPIEVLKIMEANARRAGCTRGCLICLSKIKCTAKMKRYIPGRCHTYEGDKSIGQGGIGGPIVDIPEIIGFKNMEPMDQFIAQVDLCADCTTGCLKGLANVRCNDLLKKWLPDRCAGFADKIQNEVDSIKGMAGDRGSGLNDI
modifications: misc_feature 1..585 pEE12.4
B3: pCold WT-NS Pxluc: wild type Pleuromamma xiphia luciferase without a signal peptide, SEQ ID NO: 4, prokaryotic expression (protein)
chain: QPTENKQESHIVDSDLDGDRGRKLPGKKLPIEVLKIMEANARRAGCTRGCLICLSKIKCTAKMKRYIPGRCHTYEGDKSIGQGGIGGPIVDIPEIIGFKNMEPMDQFIAQVDLCADCTTGCLKGLANVRCNDLLKKWLPDRCAGFADKIQNEVDSIKGMAGDR
modifications: WT-NS Pxluc

How the values were obtained:
Type in all cases: biochemical
[1] = Substrate specificity assay of purified luciferase, ZS2/F-CTZ luminescence ratio; conditions: for ZS2 luminescence intensity to F-CTZ luminescence intensity: purified prokaryotically expressed luciferase 1 μg/ml, substrates 100 μM, microplate reader
Experimental: (§1) Protein concentration was accurately determined using the BCA quantification kit (Thermo Scientific™ Pierce™ BCA Protein Assay Kit), and luciferase was diluted to 1 μg/ml with diluent (50 mM Tris-HCl pH 8.0, 100 mM NaCl, 0.1% (v/v) Tween-20) and 10 μL was added to black 96-well plates, which was then added with 90 μL of the respective substrates, coelenterazine (purchased from Baiaolaibo), fluorinated coelenterazine, and coelenterazine derivatives ZS2 and ZS26 that were diluted to 100 μM with the same solution, and the luminescence intensity was read from the luminescence module with a microplate reader. The substrate specificity of the mutants was compared with the activity ratio of ZS2/F-CTZ and ZS26/F-CTZ. Table 10 below lists results of the mutation sites and substrate specificity of ZS26/F-CTZ and ZS2/F-CTZ of the dominant mutant of Pleuromamma xiphia luciferase.
(§2) pEE12.4 Pxluc WT and mutant pEE12.4 Pxluc P26-95, as well as the coupled products SA-Pxluc WT and SA-Pxluc P26-95 were subjected to the activity assay according to the method described in Example 5.

[2] = Substrate specificity assay of purified luciferase, ZS26/F-CTZ luminescence ratio; conditions: for ZS26 luminescence intensity to F-CTZ luminescence intensity: purified prokaryotically expressed luciferase 1 μg/ml, substrates 100 μM, microplate reader
Experimental: as §1, §2

[3] = Activity assay of Pxluc expressed in eukaryotic cells; conditions: expressed in eukaryotic cells (Expi-CHO); FIG. 12
Experimental: as §1, §2

[4] = Protein activity assay for Pleuromamma xiphia luciferase expressed in prokaryotic cells; conditions: protein expressed in OrigamiB (DE3) or BL21 (DE3), Gluc as control, FIG. 6
Experimental: The concentration of protein was accurately determined using a BCA quantification kit (Thermo Scientific™ Pierce™ BCA Protein Assay Kit), and the above purified luciferase was diluted with diluent (50 mM Tris-HCl pH 8.0, 100 mM NaCl, 0.1% (v/v) Tween-20). The protein expressed by the pET28a-Pxluc WT plasmid was diluted to 12 μg/ml, and the proteins expressed by the pCold WT Pxluc plasmid and pCold WT-NS Pxluc plasmid were diluted to […]. 10 μL of each protein was added to a black 96-well plate, which was then added with 90 µL of the respective substrates, coelenterazine (purchased from Baiaolaibo), fluorinated coelenterazine, and coelenterazine derivatives ZS2, ZS26 (the structural formula of each compound is shown in FIG. 5) that were diluted to 100 µM with the same solution, and the luminescence intensity was read from the luminescence module with a microplate reader. Gluc expressed in OrigamiB (DE3) competent cells was known to have good luminescence activity, and thus it was used as a control group. […] Therefore, the luminescence activity of Pleuromamma xiphia luciferase without a signal peptide to coelenterazine is similar to that of Gluc to coelenterazine. […] Subsequent experiments were performed with Pleuromamma xiphia luciferase without a signal peptide.

| Molecule | ZS2 luminescence intensity to F-CTZ luminescence intensity [1] | ZS26 luminescence intensity to F-CTZ luminescence intensity [2] | activity of catalyzing the substrates ZS2, ZS26 [3] | substrate specificity for ZS2/F-CTZ ([1]; text summary of Table 10, FIG. 8) | luminescence value / luminescence activity to coelenterazine ([4]; listed as Pleuromamma xiphia luciferase without a signal peptide) | luminescence value / luminescence activity to coelenterazine ([4]; listed as pCold WT NS Pxluc) | substrate specificity for ZS26/F-CTZ ([2]; text summary of Table 10, FIG. 7) |
| --- | --- | --- | --- | --- | --- | --- | --- |
| B1 | 21.808 | 23.647 |  |  |  |  |  |
| B2 |  |  | had the activity of catalyzing the substrates |  |  |  |  |
| B3 | 3.56 | 1.77 |  | about 3.56 fold | higher activity | highest luminescence value | about 1.77 fold |
